{"source": "the nanobody polyreactivity screen of Harvey et al. (2022)", "data": [{"assay": "yeast display, Sf9 membrane polyspecificity reagent, FACS + sequencing; frameworks hold sequencing errors", "how_it_was_run": "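Polyreactivity labels are assigned by the sorting gate from which each nanobody was recovered. The gates were low and high (top ~1%), set on anti-HA fluorescence for expression and streptavidin fluorescence for reagent binding. Before sorting, galactose-induced (36–48 hours) yeast display cells were stained for 1 hour at 4 °C with 10% biotinylated, detergent-solubilized Sf9 membrane reagent.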", "values": [{"sequence": "QVQLVESGGGLVQAGGSLRLSCAASGRIFGHYVMGWYRQAPGKERELVAAITWRGGSTYYADSVKGRFTISRDNAKNTVYLQMNSLKPEDTAVYYCNRALPGYGLRRDYWGQATQVTVSS", "polyreactivity (PSR sort gate)": "high polyreactivity"}, {"sequence": "QVQLVESGGGLVQAGGSLRLSCAASGRIFGINGMGWYRQAPGKERELVAAITWIGGRTYYADSVKGRFTISRDNAKNTVYLQMNSLKPEDTAVYYCNAVYTQRFATYRRYDYWGQGTQVTVSS", "polyreactivity (PSR sort gate)": "high polyreactivity"}, {"sequence": "QVQLVESGGGLVQAGGSLRLSCAASGRIFGIYAMGWFRLAPWKERELVARITGGGSTNYADSLKGRFTISRDNAKNTVYFQMTSLKPEDTAVYYCNTKKLPYAEGYWGQGTQVTVSS", "polyreactivity (PSR sort gate)": "low polyreactivity"}, {"sequence": "QVQLVESGGGLVQAGGSLRLSCAASGRIFGIYAMGWYRHAPGKERELVATITWSGGSTYYADSVKGRFTISRDNAKNTVYLQMNSLKPEDTAVYYCAAYYRQFFGWYDYWGQGTQVTVSS", "polyreactivity (PSR sort gate)": "high polyreactivity"}, {"sequence": "QVQLVESGGGLVQAGGSLRLSCAASGRIFGIYAMGWYRQAPGKERELVASITDGTITNYADSVKGRFTISRDNAKNTVYLQMNSLKPVDTAVYYCAAGTQAHAYVVRPIEMDYWGQGTQVTVSS", "polyreactivity (PSR sort gate)": "low polyreactivity"}, {"sequence": "QVQLVESGGGLVQAGGSLRLSCAASGRIFGIYAMGWYRQAPGKERELVASITGSSGSTNYADSVKGRFTISRDNAKNTVYLQMNSLKPDDTAVYYCAADIPSYYWWRAYDYWGQGTQVTVSS", "polyreactivity (PSR sort gate)": "low polyreactivity"}, {"sequence": "QVQLVESGGGLVQAGGSLRLSCAASGRIFGIYAMGWYRQAPGKERELVSRITGGGSTNYADSVKGRFTISRDNAKNTVYLQMNSLKPEDTAVYYCAADSYLSVYDPYGYWGQGTQVTVSS", "polyreactivity (PSR sort gate)": "low polyreactivity"}, {"sequence": "QVQLVESGGGLVQAGGSLRLSCAASGRIFGIYAMGWYRQAPGKERVLVAAISRSGGSTYYADSVKGRFTISRDNAKNTVYLQMNSLKPEDTAVYYCAADSRSWTGYYYWGQGTQVTVSS", "polyreactivity (PSR sort gate)": "high polyreactivity"}, {"sequence": "QVQLVESGGGLVQAGGSLRLSCAASGRIFGIYAMGWYRQAPGKESEFVAAISWRTGSTYYADSVKWRFTISRDNAKNTVYLQMNRLNPADTAVYYCAAESASKYGYWVQGTQVTVSS", "polyreactivity (PSR sort gate)": "high polyreactivity"}, {"sequence": "QVQLVESGGGLVQAGGSLRLSCAASGRIFGIYAMGWYRQAPRKERELVASITDGTITNYADSVKGRFTISRDNAKNTVYLQMNSLKPEDTAVYYCAAGTQAHAYVVRPIEMDYWGQGTQVTVSS", "polyreactivity (PSR sort gate)": "low polyreactivity"}, {"sequence": "QVQLVESGGGLVQAGGSLRLSCAASGRIFGIYTMGWYRQAPGKERELVAAISRSGGSTYYADSVKGRFTISRDNAKNTVYLQMNSLKPEDTAVYYCAAVPYRFPGYGFDSWGQGTQVTVSS", "polyreactivity (PSR sort gate)": "high polyreactivity"}, {"sequence": "QVQLVESGGGLVQAGGSLRLSCAASGRIFGKNAMGWYRQAPGKERELVAAITGSGGNTYYADSVKGRFTISRDNAKNTVYLQMNSLKPEDTAVYYCNTSPRFRRYPDYDYWGQGTQVTVSS", "polyreactivity (PSR sort gate)": "high polyreactivity"}, {"sequence": "QVQLVESGGGLVQAGGSLRLSCAASGRIFGKYAMGWYRPAPGKERELVAAIDGSGSTNYADSVKGRFTISRDNAKNTVYLQMNSLKPEDTAVYYCATDHAQKFRYRSPREYWGEGTQVTVSS", "polyreactivity (PSR sort gate)": "low polyreactivity"}, {"sequence": "QVQLVESGGGLVQAGGSLRLSCAASGRIFGKYAMGWYRQAPGKERELVAVITSRDGRTYYADSVKGRFTISRDNAKNTVYLQMNSLIPEDTAVYYCAADYWTGITPDAIGDYWGQGTQVTVSS", "polyreactivity (PSR sort gate)": "low polyreactivity"}, {"sequence": "QVQLVESGGGLVQAGGSLRLSCAASGRIFGKYAMGWYRQAPGKERELVAVITSRDGRTYYADSVKGRFTISRDNAKNTVYLQMNSLKPEDTAVYYCAADLVNGHYYYWGQGTQVTVSS", "polyreactivity (PSR sort gate)": "low polyreactivity"}, {"sequence": "QVQLVESGGGLVQAGGSLRLSCAASGRIFGLNAMGWYRQAPGKETEFVAAITWRGGRTYYADSVKGRFTISRDKANKTVYLQMNSLKPEDTAVYYCAADGGSTLDYFWGQGTQVTVSS", "polyreactivity (PSR sort gate)": "low polyreactivity"}, {"sequence": "QVQLVESGGGLVQAGGSLRLSCAASGRIFGLYAMGWYRQAPGKERELVATITRRGGSTYYADSVKGRFTISRDNAKNTVYLQMNSLKPEDTAVYYCNVRTLVQHHSSYSSRYDSWGQGTQVTVSS", "polyreactivity (PSR sort gate)": "high polyreactivity"}, {"sequence": "QVQLVESGGGLVQAGGSLRLSCAASGRIFGLYSRGSYRQAPGKERELVAAISSRGGSTYYADSVKGRFTISRDNAKNTVYLQMNSLKPEDTAVYYCARETSYFGPSDYDYWGQGTQVTVSS", "polyreactivity (PSR sort gate)": "high polyreactivity"}, {"sequence": "QVQLVESGGGLVQAGGSLRLSCAASGRIFGNNVMGWYRQAPGKERELVASINYSGGSTYYADSVKGRFTISRDNAKNTVYLQMNSLKPEDTAVYYCARSYGWYPWRTSYTVGFYYWGQGTQVTVSS", "polyreactivity (PSR sort gate)": "high polyreactivity"}, {"sequence": "QVQLVESGGGLVQAGGSLRLSCAASGRIFGPYAMGWSRQAPGKERELVASISYSGGSTYYADSVKGRFTISRDNAKNTVYLQMNSLKPEDTAVYYCNALSRTAWSYYLYPSTPFDYWGQGTQVTVSS", "polyreactivity (PSR sort gate)": "low polyreactivity"}, {"sequence": "QVQLVESGGGLVQAGGSLRLSCAASGRIFGPYAMGWYRQAPGKERELVASITRSGGRTYYADSVKGRFTISRDNAKNTVYLQMNSLKPEDSAVYYCAAGGFSKSYYYWGQGSQVTVSS", "polyreactivity (PSR sort gate)": "high polyreactivity"}, {"sequence": "QVQLVESGGGLVQAGGSLRLSCAASGRIFGPYTMGWYRQAPGKEREFVAAITRRGGSTYYADSVKGRFTISRDNAKNTVYLQMNSLKPEDTAVYYCAAVGQKRSLGYSWGQGTQVTVSS", "polyreactivity (PSR sort gate)": "low polyreactivity"}, {"sequence": "QVQLVESGGGLVQAGGSLRLSCAASGRIFGPYTMGWYRQAPGKERELVATISYSGSTTYYADSVKWRFTISRDNAKNTVYLQMNSLKPEDTAVYYCNAQYYVFITFDYWGQGTQGTVSS", "polyreactivity (PSR sort gate)": "high polyreactivity"}, {"sequence": "QVQLVESGGGLVQAGGSLRLSCAASGRIFGQNAMGWYRQAPGKERELVAAITGSGGRTYYADSVKGRFTISRDNAKNTVYLQMNSLKPEYTAVYYCAVSVTSYYRTMDYWGQGTQVTVSS", "polyreactivity (PSR sort gate)": "low polyreactivity"}, {"sequence": "QVQLVESGGGLVQAGGSLRLSCAASGRIFGQYAMGWYRQAPGKEREFVAGISTTGGSTYYADSVKGRFTISRDNAKNTVYLQMNSLKPEDTAVYYCAVRINWSRWYHYYTYNYWGQGTQVTVSS", "polyreactivity (PSR sort gate)": "high polyreactivity"}, {"sequence": "QVQLVESGGGLVQAGGSLRLSCAASGRIFGQYTMGWYRQAPGKERELVAAISRSSSTKYADSVKGRFTISRDNAKNTVYLQMNSLKPEDTAVYYCAAYVYYYGGRTYDYWGQGTQVTVSS", "polyreactivity (PSR sort gate)": "high polyreactivity"}, {"sequence": "QVQLVESGGGLVQAGGSLRLSCAASGRIFGRNAMGWYRQAPGKERELVAGISGRGGITYYADSVKGRFTISRDNAKNTVYLQMNSLKPEDTAVYYCAATGGDYYDFSYWGQGTQVTVSS", "polyreactivity (PSR sort gate)": "high polyreactivity"}, {"sequence": "QVQLVESGGGLVQAGGSLRLSCAASGRIFGRNAMGWYRQAPGKERELVASITSGGGTNYADSVKGRFTISRDNAKNTVYLQMNSLKPEDTAVYYCAAKRHLEGYSGSIGRYYYWGQGTQVTVSS", "polyreactivity (PSR sort gate)": "low polyreactivity"}, {"sequence": "QVQLVESGGGLVQAGGSLRLSCAASGRIFGRNPMGWYRQAPGKERELVAAITSRGTRTYYADSVKGRFTISRDNAKNTVYLQMISLKPEDTAVYYCNAAYYHSSSYPDYDYWGQGTQVTVSS", "polyreactivity (PSR sort gate)": "high polyreactivity"}, {"sequence": "QVQLVESGGGLVQAGGSLRLSCAASGRIFGRYAMGWYRPAPGKERELVAAISRSGGSTYYADSVKGRFTISRDNAKNTVYLHMNSLKPEDTAVYYCAAERWTRRHYSGNDYWGQGTQVTVSS", "polyreactivity (PSR sort gate)": "low polyreactivity"}, {"sequence": "QVQLVESGGGLVQAGGSLRLSCAASGRIFGRYAMGWYRQAPGKEREFVATITSRGGNTYYADSVKGRFTISRDTAKNSVYLQMNSLKPEDTAVYYCNADYLWFNFYYWGQGTQVTVSS", "polyreactivity (PSR sort gate)": "low polyreactivity"}, {"sequence": "QVQLVESGGGLVQAGGSLRLSCAASGRIFGRYAMGWYRQAPGKERELVAAIPRNGGSTYADSVNGRFTISRDNAKNTVYLQMNILKPEDTAVYYCAKKRGGKKSGPHDYWGQGTQVTVSS", "polyreactivity (PSR sort gate)": "high polyreactivity"}, {"sequence": "QVQLVESGGGLVQAGGSLRLSCAASGRIFGRYAMGWYRQAPGKERELVAAISGGGSTNYADSVKGRFTISRDNAKNTVYLQMNSLKPEDTAVYYCAADDDWSGVEFDYWGQGTQVTVSS", "polyreactivity (PSR sort gate)": "low polyreactivity"}, {"sequence": "QVQLVESGGGLVQAGGSLRLSCAASGRIFGRYAMGWYRQAPGKERELVAAISSGGNTYYADSVKGRFTISRDNAKNTVYLQMNSLKPEDTAVYYCKALYYRQPGYDYWGQGTQVTVSS", "polyreactivity (PSR sort gate)": "high polyreactivity"}, {"sequence": "QVQLVESGGGLVQAGGSLRLSCAASGRIFGRYAMGWYRQAPGKERELVAAITGRGASTYYADSVKGRFTISRDNAKNTVYLQMNSLKPEDTAVYYCNAFRGAQGTDAYDWGQGTQVTVSS", "polyreactivity (PSR sort gate)": "low polyreactivity"}, {"sequence": "QVQLVESGGGLVQAGGSLRLSCAASGRIFGRYAMGWYRQAPGKERELVAGITGSSGTTYYADSVKGRFTISLDNAKNTVYLQMNSLKPEDTAVYYCAVETYWHARSHDYWGQGTQVTVSS", "polyreactivity (PSR sort gate)": "low polyreactivity"}, {"sequence": "QVQLVESGGGLVQAGGSLRLSCAASGRIFGRYAMGWYRQAPGNERELVAAISRRGSRTYYADSVKGRFTISRDNAKNTVYLQMNSLKPEDTAVYYCNALTGSFKTYSFDYWGQGTQVTVSS", "polyreactivity (PSR sort gate)": "high polyreactivity"}, {"sequence": "QVQLVESGGGLVQAGGSLRLSCAASGRIFGRYGMGWYRQAPGKERELVAAISRSGDRTYYADSVKGRFTISRDNAKNTVYLQMNSLKPEDTAVYYCAAYSYRYDYWGQGTQVTVSS", "polyreactivity (PSR sort gate)": "high polyreactivity"}, {"sequence": "QVQLVESGGGLVQAGGSLRLSCAASGRIFGSNTMGWFRQAPGKERELVAAITGDDSTYADSVKGRFTISRDNAKNTVYLQMNSLKPVDTAVYYCAVVWVWDVWFLVYYWGQGTQVTVSS", "polyreactivity (PSR sort gate)": "low polyreactivity"}, {"sequence": "QVQLVESGGGLVQAGGSLRLSCAASGRIFGSYAMGWYRQAPGKERELVAAITTDDSTNYADSVKGRFTISRDNAKNTVYLQMNSLKPEDTAVYYCNAERWDELFDSWGQVTQVTVSS", "polyreactivity (PSR sort gate)": "low polyreactivity"}, {"sequence": "QVQLVESGGGLVQAGGSLRLSCAASGRIFGSYVMGWYRQAPGKERELVAAISRGGSTYYADSVKGRFTISRDNAKNTVYLQLNSLTPEDTAVYYCAAYSIYGTSYLYTQAFYYWGQGTQVTVSS", "polyreactivity (PSR sort gate)": "high polyreactivity"}, {"sequence": "QVQLVESGGGLVQAGGSLRLSCAASGRIFGTHDMGWYRQAPGKESELVAAIRATSGSTYYADSVKGRFTISRDNAKNTVYLQMYSLKPEDTAVYYCAAEIWRYNSYIKYWHRVDYWGQGTQVTVSS", "polyreactivity (PSR sort gate)": "high polyreactivity"}, {"sequence": "QVQLVESGGGLVQAGGSLRLSCAASGRIFGTNAMGWYRQAPGKERELVADITSGGSTNYADSVKGRFTISRDNAKNTVYLQMNSLTPEDTAVYYCAADVIGDLRWYRDEYWGQGTQVTVSS", "polyreactivity (PSR sort gate)": "low polyreactivity"}]}]}
